The target of series [1] is T1, His6-MBP-FXR2P P474S and P493N (Homo sapiens, UniProt P51116 1-673, P474S;P493N). Put plainly: EMSA; 250 nM protein; FA: 20 mM Tris pH 7.5, 75 mM KCl, 5 mM MgCl2, 1 uM BSA, 1 mM DTT, 100 ng/uL tRNA, ~5 nM RNA, RT 1 h; EMSA: 50 mM Tris pH 7.5, 145 mM KCl, 5 mM MgCl2, 1 uM BSA. As to conditions: protein: recombinant, tags: N-terminal His6-MBP.
Series [2] addresses T2, His6-MBP-FMRP P451S (Homo sapiens, UniProt Q06787 1-632, P451S). The series is described as above.
In series [3] the target is T1, His6-MBP-FXR2P P474S and P493N. Put plainly: fluorescence anisotropy; 75 mM K+, 5 mM Mg2+; FA: 20 mM Tris pH 7.5, 75 mM KCl, 5 mM MgCl2, 1 uM BSA, 1 mM DTT, 100 ng/uL tRNA, ~5 nM RNA, RT 1 h; EMSA: 50 mM Tris pH 7.5, 145 mM KCl, 5 mM MgCl2, 1 uM BSA. To be noted: protein: recombinant; tags: N-terminal His6-MBP; label: 3' fluorescein; G-quadruplex forming.
Series [4] concerns the target T2, His6-MBP-FMRP P451S. The series is described as above.

T1 sequence (P51116 whole entry P474S/P493N): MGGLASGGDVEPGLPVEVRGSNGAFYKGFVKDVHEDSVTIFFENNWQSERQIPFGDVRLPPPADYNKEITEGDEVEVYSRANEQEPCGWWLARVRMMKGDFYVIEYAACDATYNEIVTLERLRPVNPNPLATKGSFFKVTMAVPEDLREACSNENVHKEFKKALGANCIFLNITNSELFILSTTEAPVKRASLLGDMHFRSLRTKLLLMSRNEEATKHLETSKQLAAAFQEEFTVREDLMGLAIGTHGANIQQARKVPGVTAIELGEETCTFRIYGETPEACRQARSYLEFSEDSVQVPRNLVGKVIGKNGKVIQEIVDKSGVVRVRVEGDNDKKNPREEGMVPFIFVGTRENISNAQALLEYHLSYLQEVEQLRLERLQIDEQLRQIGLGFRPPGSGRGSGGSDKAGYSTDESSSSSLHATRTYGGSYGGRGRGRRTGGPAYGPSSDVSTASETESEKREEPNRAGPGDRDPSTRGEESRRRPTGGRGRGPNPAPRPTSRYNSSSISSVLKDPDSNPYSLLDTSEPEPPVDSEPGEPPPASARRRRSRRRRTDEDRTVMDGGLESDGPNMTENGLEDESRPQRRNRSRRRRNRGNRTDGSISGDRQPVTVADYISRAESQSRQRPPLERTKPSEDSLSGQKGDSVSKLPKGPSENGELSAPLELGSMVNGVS

B1: ΔKC2 (structured_RNA)
RNA: GGGCGAAUUCGGGAUUCCGACCAGAAGGGGCUAAGGAAUGGUGGGACGAGCUAGCGGCUGGUAUGUGCGUCU
Turning to B1, the binding result is “binds” in series [1] (label: 3' fluorescein (FTSC, periodate-oxidized 3' end), loop-loop pseudoknot (kissing complex)) and “binds” with His6-MBP-FMRP P451S [2].

B2: poly-G17U (structured_RNA)
RNA: GGGGGGGGGGGGGGGGGU
By Kd is commonly meant the concentration at which binding is half-saturated. For B2, the Kd in series [3] is 3.1 ± 0.4 nM; in the series with His6-MBP-FMRP P451S [4], 5.6 nM.

B3: CR1 (ssRNA)
RNA: GCUAUCCAGAUUCUGAUU
Turning to B3, the binding result in series [1] (label: 3' fluorescein, single strand, no predicted G-quadruplex) is listed as “no binding”; with His6-MBP-FMRP P451S [2], “no binding”.
